Source: patent publication US20240190958A1, “NOVEL ANTIBODY DRUG CONJUGATES WITH NOVEL NAPI2B ANTIBODIES, THERAPEUTIC METHODS AND USES THEREOF” (Tubulis GmbH, priority 2022, published 2024)

Biological target: recombinant human FcγRIIa/CD32 R131 (Lumit binding immunoassay) (human) (UniProt P12318)
Test: Lumit FcγRIIa (CD32) (R131) Binding Immunoassay (Promega), competition with Tracer-LgBiT for FcγR-SmBiT, luminescence, n=1; right panel

Chain of recombinant human FcγRIIa/CD32 R131 (Lumit binding immunoassay) (human) (P12318 34-217 H167R limits assumed): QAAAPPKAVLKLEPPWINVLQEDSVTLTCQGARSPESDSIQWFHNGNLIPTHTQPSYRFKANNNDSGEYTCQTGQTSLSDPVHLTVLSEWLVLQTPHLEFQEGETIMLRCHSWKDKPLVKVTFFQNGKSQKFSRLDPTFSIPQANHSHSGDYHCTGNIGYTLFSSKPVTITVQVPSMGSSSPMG

- IC50 (read off the curve): 3 µg/mL
Substance: IgG1 positive control (standard of the Lumit FcγR Binding Immunoassays) (antibody)
